Results from publication PMC9150345.

How the values were obtained:
[1] = molecular target: Antp^AAAA-hTBP pair (VC-Antp YPWM mutant with VN-TBP) as acceptor in BiFC-FRET (Drosophila | human) (UniProt P02833)
[2] = molecular target: AntpΔN-hTBP pair (VC-AntpΔN with VN-TBP) as acceptor in BiFC-FRET (Drosophila | human) (UniProt P02833)
[3] = molecular target: Antp^AAAA, Antp with the YPWM motif substituted by alanines, fused to the C-terminal fragment of Venus (Drosophila), P02833
[4] = molecular target: Antp^I32A−H36A-hTBP pair (VC-Antp HD helix 2 mutant with VN-TBP) as acceptor in BiFC-FRET (Drosophila | human) (UniProt P20226)
Antp^I32A−H36A-hTBP pair (VC-Antp HD helix 2 mutant with VN-TBP) as acceptor in BiFC-FRET (Drosophila | human), sequence (P20226 whole entry, looked up, stated change not applied, tested part not stated): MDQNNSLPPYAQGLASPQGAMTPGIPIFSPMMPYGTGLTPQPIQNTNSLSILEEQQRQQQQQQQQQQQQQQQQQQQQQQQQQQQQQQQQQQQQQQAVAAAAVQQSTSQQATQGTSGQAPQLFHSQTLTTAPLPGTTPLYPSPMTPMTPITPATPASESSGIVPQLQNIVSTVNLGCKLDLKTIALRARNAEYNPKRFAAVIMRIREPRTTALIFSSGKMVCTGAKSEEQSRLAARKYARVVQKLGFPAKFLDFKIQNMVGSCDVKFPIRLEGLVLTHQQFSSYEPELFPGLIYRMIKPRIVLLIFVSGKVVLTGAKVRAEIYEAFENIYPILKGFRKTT

AntpΔN-hTBP pair (VC-AntpΔN with VN-TBP) as acceptor in BiFC-FRET (Drosophila | human), sequence (P02833 270-378, stated change not applied, chain 1 of 2): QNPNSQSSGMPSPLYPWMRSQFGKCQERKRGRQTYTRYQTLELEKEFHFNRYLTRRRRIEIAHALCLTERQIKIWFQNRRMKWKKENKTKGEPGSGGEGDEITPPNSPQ
AntpΔN-hTBP pair (VC-AntpΔN with VN-TBP) as acceptor in BiFC-FRET (Drosophila | human), sequence (P20226 whole entry, stated change not applied, chain 2 of 2, further chain, the tested form may be a part): as the sequence (P20226 whole entry, looked up, stated change not applied, tested part not stated) above
Antp^AAAA, Antp with the YPWM motif substituted by alanines, fused to the C-terminal fragment of Venus (Drosophila), P02833, sequence (P02833 whole entry, the tested form may be a part): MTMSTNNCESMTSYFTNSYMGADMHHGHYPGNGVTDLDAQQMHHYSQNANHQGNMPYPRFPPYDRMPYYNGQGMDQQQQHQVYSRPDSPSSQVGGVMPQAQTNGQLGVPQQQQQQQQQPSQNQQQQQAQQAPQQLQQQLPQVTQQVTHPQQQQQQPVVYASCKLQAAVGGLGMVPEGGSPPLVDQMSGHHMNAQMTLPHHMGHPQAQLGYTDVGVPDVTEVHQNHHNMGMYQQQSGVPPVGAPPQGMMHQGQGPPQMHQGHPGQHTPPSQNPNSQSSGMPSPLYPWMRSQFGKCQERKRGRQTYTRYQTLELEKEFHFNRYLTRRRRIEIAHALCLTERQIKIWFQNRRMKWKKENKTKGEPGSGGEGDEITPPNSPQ
Antp^AAAA-hTBP pair (VC-Antp YPWM mutant with VN-TBP) as acceptor in BiFC-FRET (Drosophila | human), sequence (P02833 whole entry, stated change not applied, chain 1 of 2): as the sequence (P02833 whole entry, the tested form may be a part) above
Antp^AAAA-hTBP pair (VC-Antp YPWM mutant with VN-TBP) as acceptor in BiFC-FRET (Drosophila | human), sequence (P20226 whole entry, stated change not applied, chain 2 of 2, further chain): as the sequence (P20226 whole entry, looked up, stated change not applied, tested part not stated) above

B1: Extradenticle (Exd) (144–376) fused to ECFP (domain or fragment)
chain: DGADNAIEHSDYRAKLAQIRQIYHQELEKYEQACNEFTTHVMNLLREQSRTRPITPKEIERMVQIIHKKFSSIQMQLKQSTCEAVMILRSRFLDARRKRRNFSKQASEILNEYFYSHLSNPYPSEEAKEELARKCGITVSQVSNWFGNKRIRYKKNIGKAQEEANLYAAKKAAGASPYSMAGPPSGTTTPMMSPAPPQDSMGYPMGSGGYDQQQPYDNSMGGYDPNLHQDLSP
B1 was tested, and the transactivation on pGLH11 of Antp^AAAA with TBP and Exd, percent of Antp alone (Fig. 5C) [1] was 70% and the transactivation on pGLH11 of AntpΔN with TBP and Exd, percent of Antp alone (Fig. 5C) [2] was 65%.

B2: Extradenticle (Exd) (144–376) fused to ECFP, P40427 144-376 (domain or fragment)
chain: B1 chain
B2 gave a transactivation on pGLH11 of Antp^AAAA with Exd, percent of Antp alone (Fig. 5C) [3] of 97%.

B3: TFIIEβ fused to ECFP (natural protein)
chain: MDPALLREREAFKKRAMATPTVEKKSKPDRPAPPPPSDDSRRKMRPPNAPRLDATTYKTMSGSSQYRFGVLAKIVKFMRTRHQDGDDHPLTIDEILDETNQLDIGQSVKNWLASEALHNNPKVEASPCGTKFSFKPVYKIKDGKTLMRLLKQHDLKGLGGILLDDVQESLPHCEKVLKNRSAEILFVVRPIDKKKILFYNDRTANFSVDDEFQKLWRSATVDAMDDAKIDEYLEKQGIRSMQDHGLKKAIPKRKKAANKKRQFKKPRDNEHLADVLEVYEDNTLTLKGVNPT
Work on B3 yielded a transactivation on pGLH11 of Antp^I32A−H36A with TBP and TFIIEβ, percent of Antp alone (Fig. 5B) [4] of 72%.
